Data from paper PMC13538652.

Molecular target: T1, GZF1-Flag (UniProt Q4VBD9 1-706)
T1 sequence: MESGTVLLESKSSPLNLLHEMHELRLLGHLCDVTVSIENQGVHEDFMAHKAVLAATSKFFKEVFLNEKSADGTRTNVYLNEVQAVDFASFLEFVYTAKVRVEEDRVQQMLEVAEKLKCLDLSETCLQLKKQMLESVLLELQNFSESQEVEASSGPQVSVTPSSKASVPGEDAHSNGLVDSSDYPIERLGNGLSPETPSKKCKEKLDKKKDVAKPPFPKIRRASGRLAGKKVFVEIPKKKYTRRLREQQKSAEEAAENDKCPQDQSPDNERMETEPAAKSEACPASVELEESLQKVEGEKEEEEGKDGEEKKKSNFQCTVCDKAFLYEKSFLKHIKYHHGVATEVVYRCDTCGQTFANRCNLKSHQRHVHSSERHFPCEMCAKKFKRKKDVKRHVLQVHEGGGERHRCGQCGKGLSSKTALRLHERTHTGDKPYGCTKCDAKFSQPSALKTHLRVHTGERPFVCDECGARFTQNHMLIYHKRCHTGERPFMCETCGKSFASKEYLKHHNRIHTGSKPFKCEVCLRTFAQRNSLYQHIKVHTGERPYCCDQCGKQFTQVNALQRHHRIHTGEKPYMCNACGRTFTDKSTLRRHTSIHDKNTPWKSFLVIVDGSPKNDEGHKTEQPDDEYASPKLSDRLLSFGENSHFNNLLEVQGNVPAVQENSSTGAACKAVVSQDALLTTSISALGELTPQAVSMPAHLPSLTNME
Assay: PBM

GAGGCCATTACGGTAATGCCTCCTGGCATTACCGTAATGGCCTCACACTC (structured_DNA) [Gzf1_bs_unmethylated]
binding result: binds
